Columns and labels:
[1] = tested on: AchE-containing ventral spinal cord neurons; assay: Count of AchE-containing neurons in ventral spinal cord cultures; assay type: cell-based, rat; settings: CNTF 10 ng/ml at plating; 7 days
Description: Sprague-Dawley rats (HSD or Zivic-Miller) were used for all experiments. Pregnant rats (E14) were sacrificed as described in 10.1.1.
Spinal cords were removed aseptically from rat embryos as described in 10.1.2. The cord tissues were minced into small pieces and incubated in 0.1% trypsin (GIBCO) and 0.01% deoxyribonuclease type 1 (Sigma) at 37° C. for 20 minutes. Trypsin solution was then removed, rinsed and replaced with medium consisting of 45% Eagle's minimum essential medium (MEM), 45% Ham's nutrient mixture F12 (F12), 5% fetal calf serum (GIBCO), 5% horse serum (GIBCO) glutamine (2 mM), penicillin G (0.5 U/ml), and streptomycin (0.5 ug/ml). This was then mechanically dissociated twice by gentle trituration through a Pasteur pipet in the same medium, and the supernatants were pooled and filtered through a nylon filter (Nitex, Tetko; 40 um). Total cell number yielded was determined by hemocytometer counting in the presence of trypan blue. Dissociated ventral cells were then plated at a density of approximately 50,000 cells/cm^2 on dishes coated with poly-L-ornithine (10 ug/ml) and laminin (5 ug/ml). Treatments were given on the day of plating, except for delayed addition experiments in which treatments were given on days 2 or 6. Cultures were maintained at 37° C. in 95% air/5% CO2 atmosphere at nearly 100% relative humidity. Culture medium was changed every 3 to 4 days. […]

[2] = tested on: E18-19 rat hippocampal neurons; assay: High affinity GABA uptake in hippocampal cultures; assay type: cell-based
Description: Hippocampi were dissected from E18-19 rat embryos of Sprague-Dawley rats, and collected in F10 medium. The tissues were minced, rinsed twice with F10 medium (Gibco) and trypsinized with 0.25% trypsin (Gibco) for 20 minutes at 37° C. Trypsin was inactivated by the addition of a serum-containing medium composed of minimal essential medium (MEM) supplemented with fetal calf serum (FCS, 10%), glutamine (2 mM), penicillin (25 U/ml) and streptomycin (25 ug/ml). Dissociated cells obtained by gentle trituration were collected and centrifuged at low speed (500 rpm) for 30 seconds. The centrifugation was repeated twice, and the cell pellets were then resuspended in serum-containing medium. The cells were then plated onto 6 mm wells or 35 mm dishes that were coated with polyornithine (10 ug/ml) and laminin (10 ug/ml). In most of the experiments, the cells were plated at a low density of approximately 71,000 cells/cm^2. Five to six hours following the plating of cells, medium was changed to a serum-free medium containing 1% N3 and penicillin-streptomycin (25 units/ml and 25 ug/ml, respectively), at which time CNTF was added. Medium was changed every three to four days, with re-addition of the factor.
To obtain neuron-enriched cultures, cytosine arabinoside (Ara-C, 0.3 uM) was added for a period of 24 hours. Under such condition, the hippocampal cultures contain approximately 5-10% glial cells, as assessed by GFAP immunohistochemistry.
Uptake of GABA into non-neuronal cells was inhibited by the additional of 2 mM B-alanine, whereas uptake specific for neurons is verified by inhibition with nipecotic acid at 1 mM.
The CNTF used in all assays was recombinant rat CNTF, expressed and purified as described in Example Section 12 supra.

[3] = tested on: hippocampal neurons; assay: Glutamate-induced toxicity in hippocampal cultures (MTT assay); assay type: cell-based, rat; settings: in the presence of CNTF (10 ng/ml)
Description: FIG. 38. Protective effect of CNTF on glutamate-induced toxicity in hippocampal cultures. […] Glutamate at various concentations (100-1000 uM) was added for 15 minutes, after which the cells were cultured in the absence of glutamate or CNTF for 20 h. Survival of cells at the end of the culture period was assessed by MTT assay based on the conversion of MTT (3-(4,5-dimethylthiazol-2-yl)-2,5-diphenyl tetrazolium bromide) to a purple product by vital cells. MTT dye was added to a final concentration of 0.5 mg/ml. Dyes taken up by live cells were solubilized by the addition of 0.08N HCI in isopropranol 5 hours later, and O.D. (570-650 nm) was measured.
The effect of CNTF on GABAergic neurons was dependent on the density at which the cells were plated. […] This may be due to an elevated level of neurotrophic factors in high density cultures. […] We have assessed the neurotoxic effects of various concentrations of glutamate (10-1000 μM) by means of a calorimetric MTT assay, as shown in FIG. 38. At a concentration of 1 mM, glutamate reduced cell survival to approximately 10%. In the presence of CNTF ([…]), cell survival following exposure to glutamate was enhanced.

B1: CNTF: ciliary neurotrophic factor; recombinant rat CNTF in Sections 10, 15, 17, purified rat sciatic nerve CNTF in Section 11; see endpoint conditions (protein, UniProt P20294 1-200, looked up)
Ciliary neurotrophic factor: MAFAEQTPLTLHRRDLCSRSIWLARKIRSDLTALMESYVKHQGLNKNINLDSVDGVPVASTDRWSEMTEAERLQENLQAYRTFQGMLTKLLEDQRVHFTPTEGDFHQAIHTLMLQVSAFAYQLEELMVLLEQKIPENEADGMPATVGDGGLFEKKLWGLKVLQELSQWTVRSIHDLRVISSHQMGISALESHYGAKDKQM
- increase in AchE-positive neurons versus untreated controls [1]: 2.5 fold
- increase in Gaba uptake at low plating density ([2]; 71,000 cells/cm2, CNTF 10 ng/ml, 8 days): approximately 2.6 fold
- increase in Gaba uptake at higher plating density ([2]; 143,000 cells/cm2, CNTF 10 ng/ml): failed to induce a significant increase
- concentration of CNTF required for a maximal response in GABA uptake ([2]; AraC-treated neuron-enriched cultures): 0.03 ng/mL
- increase in Gaba uptake, CNTF added on the third day and cells treated for 8 days ([2]; CNTF 10 ng/ml): failed to induce increase in Gaba uptake
- CNTF-induced increase in GABA uptake, addition delayed by one day ([2]; CNTF 10 ng/ml, assayed 7 days later): lowered
- CNTF-induced increase in GABA uptake, addition on the third day after plating ([2]; CNTF 10 ng/ml, uptake on the eighth day in culture): no longer produced an increase in GABA uptake
- increase in Gaba uptake versus untreated controls in AraC-treated cultures ([2]; neuron-enriched cultures, cytosine arabinoside 0.3 uM for 24 h, 8 days): 2.4 fold
- concentration of CNTF required for a maximal response in GABA uptake ([2]; neuron-glia mixed cultures (−AraC)): 0.1 ng/mL
- maximal increase in specific neuronal GABA uptake (dose response) ([2]; recombinant rat CNTF 0.1 ng/ml for 8 days): approximately 3 fold
- maximal increase in specific neuronal GABA uptake versus untreated controls ([2]; recombinant rat CNTF 10 ng/ml, 8 days after addition, 71,000 cells/cm2): approximately 4 fold
- concentration at which specific neuronal GABA uptake was increased ([2]; recombinant rat CNTF, 8 days): 0.01 ng/mL
- cell survival following exposure to glutamate [3]: enhanced

Reference: US6602687B1, “DNA encoding human ciliary neurotrophic factor and method for producing the protein encoded thereby” (Regeneron Pharmaceuticals, Inc., priority 1989, dated 2003)
